Experimental data reported in paper doi:10.1101/2025.03.06.641832 (bioRxiv, 2025).

Molecular target: the molecule itself
Test: SEC

B1: recombinant WT influenza A NP (NΔ7NP, C-terminal His tag) (natural protein)
chain: RSYEQMETDGERQNATEIRASVGKMIGGIGRFYIQMCTELKLSDYEGRLIQNSLTIERMVLSAFDERRNKYLEEHPSAGKDPKKTGGPIYRRVDGKWMRELILYDKEEIRRIWRQANNGDDATAGLTHMMIWHSNLNDATYQRTRALVRTGMDPRMCSLMQGSTLPRRSGAAGAAVKGVGTMVMELIRMIKRGINDRNFWRGENGRRTRIAYERMCNILKGKFQTAAQRAMVDQVRESRNPGNAEFEDLIFLARSALILRGSVAHKSCLPACVYGPAVASGYDFEREGYSLVGIDPFRLLQNSQVYSLIRPNENPAHKSQLVWMACHSAAFEDLRVSSFIRGTKVVPRGKLSTRGVQIASNENMETMESSTLELRSRYWAIRTRSGGNTNQQRASSGQISIQPTFSVQRNLPFDRPTIMAAFTGNTEGRTSDMRTEIIRLMESARPEDVSFQGRGVFELSDEKAASPIVPSFDMSNEGSYFFGDNAEEYDN
binding result: binds
